According to EP4442276A1 (INSTITUT PASTEUR, dated 2024):

Experiments:
Test in all cases: ELISA on coated recombinant spike trimer
[1] = molecular target: T1, Trimeric MERS-CoV spike ectodomain (tri-S) (MERS-CoV, UniProt K9N5Q8 18-1296)
T1 construct: extracellular domain
T1 sequence: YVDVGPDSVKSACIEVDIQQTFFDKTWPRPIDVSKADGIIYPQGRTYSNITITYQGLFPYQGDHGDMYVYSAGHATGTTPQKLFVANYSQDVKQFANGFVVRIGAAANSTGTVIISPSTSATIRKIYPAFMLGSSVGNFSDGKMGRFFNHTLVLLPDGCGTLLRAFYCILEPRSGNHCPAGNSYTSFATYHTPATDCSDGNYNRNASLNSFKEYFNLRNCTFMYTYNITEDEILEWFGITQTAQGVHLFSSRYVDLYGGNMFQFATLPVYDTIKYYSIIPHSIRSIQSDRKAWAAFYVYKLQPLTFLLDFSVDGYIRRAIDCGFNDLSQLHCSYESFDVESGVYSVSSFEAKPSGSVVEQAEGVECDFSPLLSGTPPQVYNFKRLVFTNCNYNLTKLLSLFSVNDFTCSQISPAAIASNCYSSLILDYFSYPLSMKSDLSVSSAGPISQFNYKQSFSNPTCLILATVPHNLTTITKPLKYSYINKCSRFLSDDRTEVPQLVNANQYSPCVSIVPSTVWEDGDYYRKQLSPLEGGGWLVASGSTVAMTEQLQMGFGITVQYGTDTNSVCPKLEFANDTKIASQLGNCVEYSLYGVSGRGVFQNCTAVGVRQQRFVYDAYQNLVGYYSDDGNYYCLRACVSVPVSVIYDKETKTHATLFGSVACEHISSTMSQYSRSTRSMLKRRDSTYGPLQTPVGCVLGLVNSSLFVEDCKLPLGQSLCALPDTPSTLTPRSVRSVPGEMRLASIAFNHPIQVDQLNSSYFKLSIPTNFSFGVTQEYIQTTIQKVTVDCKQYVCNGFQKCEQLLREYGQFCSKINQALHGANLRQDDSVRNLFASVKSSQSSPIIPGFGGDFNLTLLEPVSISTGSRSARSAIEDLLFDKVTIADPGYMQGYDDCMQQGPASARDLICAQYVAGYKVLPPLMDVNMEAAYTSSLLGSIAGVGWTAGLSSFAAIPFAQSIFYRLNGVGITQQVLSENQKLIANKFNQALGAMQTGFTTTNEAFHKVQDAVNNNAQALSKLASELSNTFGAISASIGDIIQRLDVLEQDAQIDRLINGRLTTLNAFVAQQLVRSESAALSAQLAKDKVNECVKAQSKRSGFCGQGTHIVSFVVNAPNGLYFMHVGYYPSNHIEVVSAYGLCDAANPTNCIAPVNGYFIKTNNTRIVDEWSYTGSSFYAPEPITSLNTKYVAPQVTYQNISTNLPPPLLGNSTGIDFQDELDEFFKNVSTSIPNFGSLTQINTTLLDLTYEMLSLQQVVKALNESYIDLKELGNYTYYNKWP

[2] = molecular target: T2, Trimeric HKU1-CoV spike ectodomain (tri-S) (HKU1-CoV, UniProt Q5MQD0 13-1300)
T2 construct: extracellular domain
T2 sequence: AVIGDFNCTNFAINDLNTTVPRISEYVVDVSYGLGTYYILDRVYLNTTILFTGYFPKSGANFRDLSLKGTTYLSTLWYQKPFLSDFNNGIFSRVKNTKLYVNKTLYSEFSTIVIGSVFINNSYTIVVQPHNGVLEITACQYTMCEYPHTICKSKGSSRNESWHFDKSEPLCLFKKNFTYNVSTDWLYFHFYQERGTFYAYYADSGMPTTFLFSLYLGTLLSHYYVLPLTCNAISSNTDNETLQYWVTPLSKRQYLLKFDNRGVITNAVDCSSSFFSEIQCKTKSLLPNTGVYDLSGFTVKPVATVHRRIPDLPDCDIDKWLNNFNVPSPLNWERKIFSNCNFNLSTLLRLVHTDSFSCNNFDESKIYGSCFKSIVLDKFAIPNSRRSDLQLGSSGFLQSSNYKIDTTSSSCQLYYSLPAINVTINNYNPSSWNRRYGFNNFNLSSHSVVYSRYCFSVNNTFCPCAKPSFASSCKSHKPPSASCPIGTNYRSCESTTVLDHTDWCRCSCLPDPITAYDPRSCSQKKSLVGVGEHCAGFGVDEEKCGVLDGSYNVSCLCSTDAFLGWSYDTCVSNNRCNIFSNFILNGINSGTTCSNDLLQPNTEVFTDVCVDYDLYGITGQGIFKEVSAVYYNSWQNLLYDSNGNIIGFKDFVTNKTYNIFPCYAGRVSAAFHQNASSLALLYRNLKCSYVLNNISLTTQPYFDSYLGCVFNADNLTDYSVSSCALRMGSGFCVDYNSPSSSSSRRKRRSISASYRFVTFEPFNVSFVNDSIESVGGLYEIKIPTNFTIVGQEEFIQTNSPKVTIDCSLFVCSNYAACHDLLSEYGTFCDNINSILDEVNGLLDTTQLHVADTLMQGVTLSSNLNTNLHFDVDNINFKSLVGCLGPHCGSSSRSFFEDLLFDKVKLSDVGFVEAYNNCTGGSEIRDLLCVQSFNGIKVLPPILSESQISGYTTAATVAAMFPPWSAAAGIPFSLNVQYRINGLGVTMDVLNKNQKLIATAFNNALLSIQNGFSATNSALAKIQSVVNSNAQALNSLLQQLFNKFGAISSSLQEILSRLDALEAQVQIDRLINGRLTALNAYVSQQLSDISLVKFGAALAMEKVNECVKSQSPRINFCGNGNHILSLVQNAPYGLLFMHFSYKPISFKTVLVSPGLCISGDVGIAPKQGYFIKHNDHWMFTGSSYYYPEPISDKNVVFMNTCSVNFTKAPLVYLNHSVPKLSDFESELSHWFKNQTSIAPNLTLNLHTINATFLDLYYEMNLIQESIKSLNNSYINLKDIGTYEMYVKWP

[3] = molecular target: T3, Trimeric OC43-CoV spike ectodomain (tri-S) (OC43-CoV, UniProt P36334 14-1297)
T3 construct: extracellular domain
T3 sequence: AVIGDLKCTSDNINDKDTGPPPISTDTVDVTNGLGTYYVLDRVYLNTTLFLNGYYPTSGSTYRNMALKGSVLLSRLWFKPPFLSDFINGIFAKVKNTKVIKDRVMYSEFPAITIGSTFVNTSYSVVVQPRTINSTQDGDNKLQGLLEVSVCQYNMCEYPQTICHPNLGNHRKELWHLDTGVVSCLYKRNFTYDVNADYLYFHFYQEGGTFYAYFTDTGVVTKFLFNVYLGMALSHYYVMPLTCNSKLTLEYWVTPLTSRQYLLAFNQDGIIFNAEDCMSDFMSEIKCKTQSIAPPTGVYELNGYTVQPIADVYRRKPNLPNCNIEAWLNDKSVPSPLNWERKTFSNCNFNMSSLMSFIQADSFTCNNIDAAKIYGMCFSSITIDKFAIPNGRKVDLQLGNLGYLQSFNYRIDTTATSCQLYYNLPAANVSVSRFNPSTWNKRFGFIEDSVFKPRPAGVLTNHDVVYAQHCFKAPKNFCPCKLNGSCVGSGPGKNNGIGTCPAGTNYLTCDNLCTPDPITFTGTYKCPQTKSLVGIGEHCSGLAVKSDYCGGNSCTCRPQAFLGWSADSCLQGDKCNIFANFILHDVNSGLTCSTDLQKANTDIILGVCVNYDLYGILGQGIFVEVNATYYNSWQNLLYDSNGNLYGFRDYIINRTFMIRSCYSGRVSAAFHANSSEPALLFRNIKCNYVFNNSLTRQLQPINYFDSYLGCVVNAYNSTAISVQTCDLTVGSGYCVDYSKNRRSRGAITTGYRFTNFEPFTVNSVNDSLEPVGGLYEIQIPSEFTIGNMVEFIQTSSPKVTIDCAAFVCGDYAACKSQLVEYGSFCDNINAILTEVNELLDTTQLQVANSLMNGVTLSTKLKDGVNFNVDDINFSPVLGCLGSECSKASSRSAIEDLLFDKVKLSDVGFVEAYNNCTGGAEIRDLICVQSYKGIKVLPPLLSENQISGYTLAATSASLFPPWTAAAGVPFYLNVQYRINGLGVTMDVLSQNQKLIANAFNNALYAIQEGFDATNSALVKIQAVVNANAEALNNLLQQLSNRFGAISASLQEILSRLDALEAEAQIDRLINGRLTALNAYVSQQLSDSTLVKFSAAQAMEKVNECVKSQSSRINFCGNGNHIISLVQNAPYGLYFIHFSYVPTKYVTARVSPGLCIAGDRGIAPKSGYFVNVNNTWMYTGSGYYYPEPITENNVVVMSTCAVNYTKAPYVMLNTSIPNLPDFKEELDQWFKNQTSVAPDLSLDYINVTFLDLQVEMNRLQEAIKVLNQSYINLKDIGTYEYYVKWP

[4] = molecular target: T4, Trimeric 229E-CoV spike ectodomain (tri-S) (229E-CoV, UniProt P15423 16-1115)
T4 construct: extracellular domain
T4 sequence: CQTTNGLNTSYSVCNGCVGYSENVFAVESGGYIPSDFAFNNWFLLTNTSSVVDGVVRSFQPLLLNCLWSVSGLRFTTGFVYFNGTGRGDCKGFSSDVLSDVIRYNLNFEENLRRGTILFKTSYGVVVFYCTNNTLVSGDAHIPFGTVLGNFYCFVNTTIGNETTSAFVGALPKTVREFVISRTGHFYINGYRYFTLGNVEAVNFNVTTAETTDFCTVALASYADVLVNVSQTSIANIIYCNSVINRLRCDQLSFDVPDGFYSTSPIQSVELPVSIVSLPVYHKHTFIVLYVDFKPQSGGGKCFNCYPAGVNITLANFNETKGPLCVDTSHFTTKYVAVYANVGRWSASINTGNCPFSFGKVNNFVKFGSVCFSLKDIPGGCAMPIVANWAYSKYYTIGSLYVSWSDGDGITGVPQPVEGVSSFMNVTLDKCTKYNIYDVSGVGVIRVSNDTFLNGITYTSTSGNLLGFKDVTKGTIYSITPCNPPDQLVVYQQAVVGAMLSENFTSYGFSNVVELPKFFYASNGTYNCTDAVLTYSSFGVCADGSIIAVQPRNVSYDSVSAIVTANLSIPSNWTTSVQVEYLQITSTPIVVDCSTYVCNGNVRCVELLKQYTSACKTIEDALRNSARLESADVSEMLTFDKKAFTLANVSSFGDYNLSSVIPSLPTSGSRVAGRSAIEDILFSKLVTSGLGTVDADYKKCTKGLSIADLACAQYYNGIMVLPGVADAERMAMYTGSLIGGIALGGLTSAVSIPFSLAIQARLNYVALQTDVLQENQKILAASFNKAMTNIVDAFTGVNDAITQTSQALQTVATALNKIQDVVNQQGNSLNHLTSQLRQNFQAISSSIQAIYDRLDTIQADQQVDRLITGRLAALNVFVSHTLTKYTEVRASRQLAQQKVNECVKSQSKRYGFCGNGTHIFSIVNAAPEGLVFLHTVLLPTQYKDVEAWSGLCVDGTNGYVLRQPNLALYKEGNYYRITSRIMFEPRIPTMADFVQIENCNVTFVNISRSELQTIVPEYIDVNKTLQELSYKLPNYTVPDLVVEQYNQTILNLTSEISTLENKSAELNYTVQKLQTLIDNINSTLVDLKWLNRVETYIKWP

Measured: binding result

B1: Cv2.3132 IgG antibody (antibody, V domains shown)
VH: EVQLVESGGGLVKPGGSLRLSCAASGFTFSDYYMSWIRQAPGKGLEWVSYISSSGSVQYYADSVKGRFTISRDNAKNSLYLQMNSLRAEDTAVYYCARYYYDSSGYWKRLDYWGQGTLVTVSS
VL: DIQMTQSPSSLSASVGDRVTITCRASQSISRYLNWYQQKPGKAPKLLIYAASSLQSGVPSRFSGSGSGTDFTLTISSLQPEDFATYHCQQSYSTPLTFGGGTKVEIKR
notes: also called anti-HR2 antibody Cv2.3132
no binding: all assays above
